The source of these data is publication PMC6009577.

What is called stoichiometry N is a count of units in the complex or per binding partner.

The target of the experiment is G4-P351A fragment of DGCR8 (proline at 351 to alanine) (human) (UniProt Q8WYQ5). The experiment is described as follows: SEC.

Regarding “G4-P351A fragment of DGCR8 (proline at 351 to alanine) (from UniProt Q8WYQ5 1-773) (domain or fragment)”, the stoichiometry N came to 2.
